Target: full-length H. sapiens ROCK2 (H. sapiens), O75116
Assay: rotary shadowing electron microscopy
Conditions: remark: other sources report otherwise

B1: full-length H. sapiens ROCK2, O75116 1-1388 (enzyme)
chain: MSRPPPTGKMPGAPETAPGDGAGASRQRKLEALIRDPRSPINVESLLDGLNSLVLDLDFPALRKNKNIDNFLNRYEKIVKKIRGLQMKAEDYDVVKVIGRGAFGEVQLVRHKASQKVYAMKLLSKFEMIKRSDSAFFWEERDIMAFANSPWVVQLFYAFQDDRYLYMVMEYMPGGDLVNLMSNYDVPEKWAKFYTAEVVLALDAIHSMGLIHRDVKPDNMLLDKHGHLKLADFGTCMKMDETGMVHCDTAVGTPDYISPEVLKSQGGDGFYGRECDWWSVGVFLYEMLVGDTPFYADSLVGTYSKIMDHKNSLCFPEDAEISKHAKNLICAFLTDREVRLGRNGVEEIRQHPFFKNDQWHWDNIRETAAPVVPELSSDIDSSNFDDIEDDKGDVETFPIPKAFVGNQLPFIGFTYYRENLLLSDSPSCRETDSIQSRKNEESQEIQKKLYTLEEHLSNEMQAKEELEQKCKSVNTRLEKTAKELEEEITLRKSVESALRQLEREKALLQHKNAEYQRKADHEADKKRNLENDVNSLKDQLEDLKKRNQNSQISTEKVNQLQRQLDETNALLRTESDTAARLRKTQAESSKQIQQLESNNRDLQDKNCLLETAKLKLEKEFINLQSALESERRDRTHGSEIINDLQGRICGLEEDLKNGKILLAKVELEKRQLQERFTDLEKEKSNMEIDMTYQLKVIQQSLEQEEAEHKATKARLADKNKIYESIEEAKSEAMKEMEKKLLEERTLKQKVENLLLEAEKRCSLLDCDLKQSQQKINELLKQKDVLNEDVRNLTLKIEQETQKRCLTQNDLKMQTQQVNTLKMSEKQLKQENNHLMEMKMNLEKQNAELRKERQDADGQMKELQDQLEAEQYFSTLYKTQVRELKEECEEKTKLGKELQQKKQELQDERDSLAAQLEITLTKADSEQLARSIAEEQYSDLEKEKIMKELEIKEMMARHKQELTEKDATIASLEETNRTLTSDVANLANEKEELNNKLKDVQEQLSRLKDEEISAAAIKAQFEKQLLTERTLKTQAVNKLAEIMNRKEPVKRGNDTDVRRKEKENRKLHMELKSEREKLTQQMIKYQKELNEMQAQIAEESQIRIELQMTLDSKDSDIEQLRSQLQALHIGLDSSSIGSGPGDAEADDGFPESRLEGWLSLPVRNNTKKFGWVKKYVIVSSKKILFYDSEQDKEQSNPYMVLDIDKLFHVRPVTQTDVYRADAKEIPRIFQILYANEGESKKEQEFPVEPVGEKSNYICHKGHEFIPTLYHFPTNCEACMKPLWHMFKPPPALECRRCHIKCHKDHMDKKEEIIAPCKVYYDISTAKNLLLLANSTEEQQKWVSRLVKKIPKKPPAPDPFARSSPRTSMKIQQNQSIRRPSRQLAPNKPS
  stoichiometry N: 2

From publication doi:10.1101/2022.03.11.483953
